# From patent publication US20040208887A1
# How the values were obtained:
# BSA (Sigma) = BSA (Sigma) (UniProt P02769); experiment: ELISA, BSA coated as negative control antigen; control Fab
# [1] = target: recombinant soluble HCV E1 protein (hepatitis C virus); experiment: ELISA, recombinant E1 captured on GNA lectin; control Fab
# [2] = target: recombinant E1/E2 heterodimer protein (genotype 1a) (hepatitis C virus genotype 1a) (UniProt P26664); experiment: ELISA, E1/E2 heterodimer coated; control Fab
# Sequence of recombinant E1/E2 heterodimer protein (genotype 1a) (hepatitis C virus genotype 1a) (P26664 192-383 limits assumed, chain 1 of 2): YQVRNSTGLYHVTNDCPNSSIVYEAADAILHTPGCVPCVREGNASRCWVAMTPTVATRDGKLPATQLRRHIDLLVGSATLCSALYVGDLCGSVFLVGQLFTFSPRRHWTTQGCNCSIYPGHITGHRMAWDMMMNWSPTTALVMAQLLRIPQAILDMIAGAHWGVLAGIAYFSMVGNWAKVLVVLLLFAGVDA
# Sequence of recombinant E1/E2 heterodimer protein (genotype 1a) (hepatitis C virus genotype 1a) (P26664 384-746 limits assumed, chain 2 of 2): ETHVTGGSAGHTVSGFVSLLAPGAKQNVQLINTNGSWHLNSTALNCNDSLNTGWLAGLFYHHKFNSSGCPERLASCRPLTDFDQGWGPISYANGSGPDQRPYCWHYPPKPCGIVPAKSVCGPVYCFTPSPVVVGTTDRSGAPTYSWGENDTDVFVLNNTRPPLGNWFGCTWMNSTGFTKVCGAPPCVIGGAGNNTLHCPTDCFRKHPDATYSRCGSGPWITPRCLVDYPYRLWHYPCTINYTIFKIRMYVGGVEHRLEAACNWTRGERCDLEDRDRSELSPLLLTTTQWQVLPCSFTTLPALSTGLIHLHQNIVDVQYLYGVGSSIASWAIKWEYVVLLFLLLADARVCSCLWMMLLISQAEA
# Sequence of BSA (Sigma) (P02769 25-607 limits assumed): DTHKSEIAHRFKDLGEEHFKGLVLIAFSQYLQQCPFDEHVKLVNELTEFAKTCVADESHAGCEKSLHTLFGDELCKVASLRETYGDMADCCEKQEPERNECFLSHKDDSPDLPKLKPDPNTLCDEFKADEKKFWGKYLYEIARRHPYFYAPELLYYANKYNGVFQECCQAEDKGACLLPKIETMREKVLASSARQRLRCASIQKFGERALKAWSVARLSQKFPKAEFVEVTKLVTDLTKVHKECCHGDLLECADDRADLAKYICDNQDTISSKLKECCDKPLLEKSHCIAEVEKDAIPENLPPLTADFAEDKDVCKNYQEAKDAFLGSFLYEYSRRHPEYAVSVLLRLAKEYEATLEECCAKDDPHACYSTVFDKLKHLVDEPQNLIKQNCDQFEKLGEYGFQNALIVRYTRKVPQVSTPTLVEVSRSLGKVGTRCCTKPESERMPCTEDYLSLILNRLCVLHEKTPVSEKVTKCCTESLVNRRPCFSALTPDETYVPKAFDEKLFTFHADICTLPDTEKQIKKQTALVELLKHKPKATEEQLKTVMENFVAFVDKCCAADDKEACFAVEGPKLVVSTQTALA
substance,measurement,setting,value
non-specific Fab,OD405 nm,BSA (Sigma),0.14 OD405 nm
same,OD405 nm,[1],0.2 OD405 nm
same,OD405 nm,[2],0.11 OD405 nm
